Results on 1 substance are retold here after patent publication US20100074892A1.

In the assay the target is recombinant anthrax protective antigen (PA) (Bacillus anthracis) (UniProt P13423). Description: SPR (Biacore). Background: SPR reads the build-up and loss of mass on a sensor chip optically.
Chain of recombinant anthrax protective antigen (PA) (Bacillus anthracis) (P13423 30-764 limits assumed): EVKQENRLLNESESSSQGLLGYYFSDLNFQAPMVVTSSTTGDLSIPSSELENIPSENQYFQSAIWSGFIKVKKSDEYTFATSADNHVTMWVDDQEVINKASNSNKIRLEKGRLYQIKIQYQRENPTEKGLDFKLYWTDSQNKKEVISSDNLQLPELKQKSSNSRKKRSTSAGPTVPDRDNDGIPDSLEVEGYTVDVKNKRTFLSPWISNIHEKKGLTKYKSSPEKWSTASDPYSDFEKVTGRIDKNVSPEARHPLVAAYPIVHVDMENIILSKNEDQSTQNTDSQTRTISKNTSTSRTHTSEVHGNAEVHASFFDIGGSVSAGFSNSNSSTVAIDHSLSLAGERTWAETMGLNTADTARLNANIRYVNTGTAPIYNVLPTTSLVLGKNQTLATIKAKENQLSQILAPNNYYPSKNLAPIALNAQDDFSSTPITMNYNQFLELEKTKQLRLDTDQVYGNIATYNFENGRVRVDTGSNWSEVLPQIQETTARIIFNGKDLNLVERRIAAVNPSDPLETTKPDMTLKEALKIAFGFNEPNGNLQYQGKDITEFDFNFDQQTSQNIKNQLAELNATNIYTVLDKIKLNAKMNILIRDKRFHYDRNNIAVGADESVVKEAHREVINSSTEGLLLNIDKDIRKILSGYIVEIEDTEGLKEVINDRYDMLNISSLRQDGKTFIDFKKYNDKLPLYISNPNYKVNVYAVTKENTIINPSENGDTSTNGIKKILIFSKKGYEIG

With mouse anti-PA monoclonal antibody 14B7, the Kd (usually the concentration at which binding is half-saturated) was 4 nM.
